Results reported in PMC10624354 (Science Advances, 2023).

T1: PIF4-NLuc (Arabidopsis, UniProt Q8W2F3 1-430)
T1 sequence (looked up): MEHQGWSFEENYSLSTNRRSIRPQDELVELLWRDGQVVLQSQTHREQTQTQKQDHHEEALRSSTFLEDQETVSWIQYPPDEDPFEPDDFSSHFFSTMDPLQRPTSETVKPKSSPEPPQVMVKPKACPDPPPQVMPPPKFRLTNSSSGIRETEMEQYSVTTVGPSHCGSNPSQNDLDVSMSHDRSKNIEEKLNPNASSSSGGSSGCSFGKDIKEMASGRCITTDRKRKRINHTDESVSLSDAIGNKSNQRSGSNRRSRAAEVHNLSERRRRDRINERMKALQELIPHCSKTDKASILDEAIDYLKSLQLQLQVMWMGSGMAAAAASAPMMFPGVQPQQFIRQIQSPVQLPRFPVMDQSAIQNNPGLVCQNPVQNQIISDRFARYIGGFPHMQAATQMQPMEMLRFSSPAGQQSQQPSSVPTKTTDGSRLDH

B1: HIS-tagged PIF4 (natural protein, Arabidopsis, UniProt Q8W2F3 1-430, looked up)
chain: MEHQGWSFEENYSLSTNRRSIRPQDELVELLWRDGQVVLQSQTHREQTQTQKQDHHEEALRSSTFLEDQETVSWIQYPPDEDPFEPDDFSSHFFSTMDPLQRPTSETVKPKSSPEPPQVMVKPKACPDPPPQVMPPPKFRLTNSSSGIRETEMEQYSVTTVGPSHCGSNPSQNDLDVSMSHDRSKNIEEKLNPNASSSSGGSSGCSFGKDIKEMASGRCITTDRKRKRINHTDESVSLSDAIGNKSNQRSGSNRRSRAAEVHNLSERRRRDRINERMKALQELIPHCSKTDKASILDEAIDYLKSLQLQLQVMWMGSGMAAAAASAPMMFPGVQPQQFIRQIQSPVQLPRFPVMDQSAIQNNPGLVCQNPVQNQIISDRFARYIGGFPHMQAATQMQPMEMLRFSSPAGQQSQQPSSVPTKTTDGSRLDH

Key:
PIF4-NLuc = target: T1, PIF4-NLuc; assay: split reporter
HIS-tagged PIF4 = target: B1; assay: pull-down
MBP-tagged HSFA1d = MBP-tagged HSFA1d (Arabidopsis, UniProt Q9LQM7 1-485); assay: pull-down
Chain of MBP-tagged HSFA1d (Q9LQM7 whole entry): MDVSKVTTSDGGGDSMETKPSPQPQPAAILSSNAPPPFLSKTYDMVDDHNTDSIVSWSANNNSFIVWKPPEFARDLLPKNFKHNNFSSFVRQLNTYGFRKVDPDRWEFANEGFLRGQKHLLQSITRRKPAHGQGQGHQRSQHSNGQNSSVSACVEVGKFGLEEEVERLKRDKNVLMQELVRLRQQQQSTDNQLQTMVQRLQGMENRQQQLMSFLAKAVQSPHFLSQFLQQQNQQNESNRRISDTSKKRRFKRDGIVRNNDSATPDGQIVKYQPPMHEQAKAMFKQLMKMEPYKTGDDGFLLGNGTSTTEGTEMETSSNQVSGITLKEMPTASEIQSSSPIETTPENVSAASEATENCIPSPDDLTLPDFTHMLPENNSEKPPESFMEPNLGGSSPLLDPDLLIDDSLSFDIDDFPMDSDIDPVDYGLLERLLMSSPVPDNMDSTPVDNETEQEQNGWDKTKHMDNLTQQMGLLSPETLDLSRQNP

Row | binding result (HIS-tagged PIF4) | Binder | other results
1 |  | HSFA1d-CLuc (natural protein) not shown | fold increase of luciferase activity at 28°C against 21°C (PIF4-NLuc): ~60 fold
2 | binds | MBP-HSFA1d-S1 (DNA binding domain, amino acids 1 to 144) (domain or fragment) not shown | 
3 | binds | MBP-HSFA1d-S2 (oligomerization domain HR-A/B and NLS, amino acids 145 to 260) (domain or fragment, Arabidopsis, UniProt Q9LQM7 145-260, looked up) GQNSSVSACVEVGKFGLEEEVERLKRDKNVLMQELVRLRQQQQSTDNQLQTMVQRLQGMENRQQQLMSFLAKAVQSPHFLSQFLQQQNQQNESNRRISDTSKKRRFKRDGIVRNND | 
4 |  | B1 | binding result (MBP-tagged HSFA1d): binds
